{"source": "patent US20230355541A1", "about": "“ENZYMATICALLY CLEAVABLE SELF-ASSEMBLED NANOPARTICLES FOR MORPHOGEN DELIVERY” (UNIVERSITY OF SOUTH CAROLINA, priority 2019, published 2023)", "molecular_target": "T1, BSA (Bos taurus, UniProt P02769)", "T1 construct": "purchased Jackson ImmunoResearch (West Grove, Pa.)", "T1 sequence (P02769 25-607)": "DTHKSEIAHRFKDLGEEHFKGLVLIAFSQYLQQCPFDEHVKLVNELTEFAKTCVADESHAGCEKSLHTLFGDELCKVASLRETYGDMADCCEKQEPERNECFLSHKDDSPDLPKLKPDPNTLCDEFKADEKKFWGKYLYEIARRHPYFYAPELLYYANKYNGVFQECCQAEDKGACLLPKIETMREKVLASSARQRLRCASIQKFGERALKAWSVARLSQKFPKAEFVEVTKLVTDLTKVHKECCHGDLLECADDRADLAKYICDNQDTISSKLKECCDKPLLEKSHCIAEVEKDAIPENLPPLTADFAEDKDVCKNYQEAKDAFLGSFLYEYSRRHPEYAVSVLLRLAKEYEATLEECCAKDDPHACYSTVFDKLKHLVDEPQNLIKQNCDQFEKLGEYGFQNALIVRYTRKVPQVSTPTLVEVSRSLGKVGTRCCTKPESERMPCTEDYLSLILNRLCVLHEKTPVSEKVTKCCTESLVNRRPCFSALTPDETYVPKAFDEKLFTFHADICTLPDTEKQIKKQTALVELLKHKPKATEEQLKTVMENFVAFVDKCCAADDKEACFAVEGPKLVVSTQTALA", "test": "Circular dichroism of BSA grafted to PxSPCP NPs", "assay_type": "physicochemical, bovine", "conditions": "PBS, 20° C.", "protocol": "Bioactivity and Cell Compatibility of BMP2-PxSPCP NPs: Circular dichroism (CD) was used to determine the effect of grafting on secondary structure of the model BSA protein. CD spectra of free or grafted BSA in PBS were collected with a spectropolarimeter (JASCO J815, Essex, UK) at 20° C. with a cuvette of 0.1 cm path length. For evaluation of cell compatibility, hMSCs (1×10^6 cells/mL) and PxSPCP NPs (10 mg) were encapsulated in LPELA hydrogel and cultured in basal medium. At each time point, the hydrogels were stained with cAM/EthD live/dead assay (1 μg/mL) and the stained cells were imaged with an inverted fluorescent microscope (Nikon Eclipse Ti-ε, Nikon, Melville, N.Y.). To quantify cell viability, the medium was replaced with fresh medium containing 10% MTS and incubated for 6 hours at 37° C. and the sample absorbance was measured with a microplate reader (Molecular Devices, San Jose, Calif.) at a wavelength of 490 nm.", "data": [{"substance": "BSA-P2SPCP NPs: BSA grafted to P2SPCP NPs", "values": [{"measurement": "CD spectrum of grafted BSA compared with free BSA", "result": "slight change"}]}, {"substance": "BSA-P0.5SPCP NPs: BSA grafted to P0.5SPCP NPs", "values": [{"measurement": "CD spectrum of grafted BSA compared with free BSA", "result": "close to that of free BSA"}]}, {"substance": "BSA-P5SPCP: BSA grafted to P5SPCP NPs", "values": [{"measurement": "CD spectrum of grafted BSA compared with free BSA", "result": "substantially different"}]}, {"substance": "BSA-P7.5SPCP: BSA grafted to P7.5SPCP NPs", "values": [{"measurement": "CD spectrum of grafted BSA compared with free BSA", "result": "substantially different"}]}]}
